According to paper PMC9569552 (International Journal of Molecular Sciences, 2022):

Target: T1, antigen c-MET (Homo sapiens (assumed), UniProt P08581)
T1 construct: c-MET used as antigen in the ForteBio Octet experiment; the construct of the antigen is unknown; also called mesenchymal-epithelial transition protein
Assay: BLI; ForteBio Octet; who was immobilised and the conditions not given; KD from ForteBio Data Analysis Software 8.0; values compared 'if normalized to the same number of epitope of c-MET'

T1 sequence (P08581 25-1390): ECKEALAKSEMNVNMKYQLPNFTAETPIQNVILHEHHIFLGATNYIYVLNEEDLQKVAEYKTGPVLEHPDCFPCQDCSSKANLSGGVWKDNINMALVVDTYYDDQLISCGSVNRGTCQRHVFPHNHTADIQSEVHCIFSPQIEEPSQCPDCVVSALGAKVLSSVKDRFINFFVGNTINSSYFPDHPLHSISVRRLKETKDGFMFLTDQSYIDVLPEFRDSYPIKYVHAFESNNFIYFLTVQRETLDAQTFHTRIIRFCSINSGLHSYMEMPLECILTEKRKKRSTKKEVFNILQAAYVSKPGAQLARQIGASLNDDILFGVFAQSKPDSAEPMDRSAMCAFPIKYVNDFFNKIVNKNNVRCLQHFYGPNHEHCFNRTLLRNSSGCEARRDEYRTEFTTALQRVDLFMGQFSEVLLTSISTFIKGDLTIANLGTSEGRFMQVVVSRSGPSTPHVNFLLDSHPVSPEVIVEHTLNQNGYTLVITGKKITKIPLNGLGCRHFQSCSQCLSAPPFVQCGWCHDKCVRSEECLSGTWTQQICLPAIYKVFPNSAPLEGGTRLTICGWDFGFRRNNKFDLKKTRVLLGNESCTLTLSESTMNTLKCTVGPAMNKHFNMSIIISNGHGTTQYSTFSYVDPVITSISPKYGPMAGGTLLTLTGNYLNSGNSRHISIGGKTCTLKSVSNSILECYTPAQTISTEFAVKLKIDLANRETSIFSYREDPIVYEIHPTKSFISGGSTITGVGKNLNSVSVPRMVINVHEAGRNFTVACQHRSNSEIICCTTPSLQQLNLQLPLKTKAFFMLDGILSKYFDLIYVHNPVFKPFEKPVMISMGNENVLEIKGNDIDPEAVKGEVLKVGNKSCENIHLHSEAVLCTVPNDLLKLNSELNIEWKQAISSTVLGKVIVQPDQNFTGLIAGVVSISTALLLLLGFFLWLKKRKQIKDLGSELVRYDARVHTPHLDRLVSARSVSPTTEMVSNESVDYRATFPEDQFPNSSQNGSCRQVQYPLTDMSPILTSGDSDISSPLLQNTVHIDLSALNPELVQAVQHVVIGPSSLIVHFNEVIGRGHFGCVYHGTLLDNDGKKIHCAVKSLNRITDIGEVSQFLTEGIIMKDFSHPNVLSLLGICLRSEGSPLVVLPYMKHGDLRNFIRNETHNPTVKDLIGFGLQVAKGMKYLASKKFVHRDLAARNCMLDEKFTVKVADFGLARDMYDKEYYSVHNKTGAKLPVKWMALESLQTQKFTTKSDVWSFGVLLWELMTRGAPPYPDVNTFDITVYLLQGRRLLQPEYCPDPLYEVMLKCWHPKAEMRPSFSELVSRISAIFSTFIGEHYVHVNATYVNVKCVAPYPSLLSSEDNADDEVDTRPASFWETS

Kd: 0.65 nM
B1: Emibetuzumab-IgG4 (Emi-IgG4) antibody (antibody, V domains shown)
VH: QVQLVQSGAEVKKPGASVKVSCKASGYTFTDYYMHWVRQAPGQGLEWMGRVNPNRRGTTYNQKFEGRVTMTTDTSTSTAYMELRSLRSDDTAVYYCARANWLDYWGQGTTVTVSS
VL: DIQMTQSPSSLSASVGDRVTITCSVSSSVSSIYLHWYQQKPGKAPKLLIYSTSNLASGVPSRFSGSGSGTDFTLTISSLQPEDFATYYCQVYSGYPLTFGGGTKVEIK
notes: heavy chain of emibetuzumab, IgG4; disclosed in WO 2010/059654; kappa light chain of emibetuzumab; IgG4; also called emibetuzumab analog; source: 293F cells, transiently co-transfected, purified from the supernatant (Protein A); copies: 2 + 2
